# Reference: PMC8062530 (2021)
# T1: Siglec-10 Fc-fusion (UniProt Q96LC7 17-550)
# T1 chain: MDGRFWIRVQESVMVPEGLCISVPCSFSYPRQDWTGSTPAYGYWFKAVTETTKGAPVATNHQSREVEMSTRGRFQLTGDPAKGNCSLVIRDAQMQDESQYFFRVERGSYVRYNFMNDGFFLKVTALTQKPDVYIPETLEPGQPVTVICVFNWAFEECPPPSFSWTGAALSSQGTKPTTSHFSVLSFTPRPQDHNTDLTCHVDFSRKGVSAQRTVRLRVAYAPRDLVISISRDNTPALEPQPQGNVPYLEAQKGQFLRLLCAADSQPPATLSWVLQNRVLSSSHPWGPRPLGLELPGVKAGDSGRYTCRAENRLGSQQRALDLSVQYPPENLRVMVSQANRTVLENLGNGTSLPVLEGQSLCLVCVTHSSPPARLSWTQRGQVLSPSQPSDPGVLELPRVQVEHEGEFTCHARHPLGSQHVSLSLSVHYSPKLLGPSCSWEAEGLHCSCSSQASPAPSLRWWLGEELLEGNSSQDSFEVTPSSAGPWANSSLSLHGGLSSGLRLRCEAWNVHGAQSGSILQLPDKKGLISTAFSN
# T2: Siglec-14 Fc-fusion (UniProt Q08ET2 17-358)
# T2 chain: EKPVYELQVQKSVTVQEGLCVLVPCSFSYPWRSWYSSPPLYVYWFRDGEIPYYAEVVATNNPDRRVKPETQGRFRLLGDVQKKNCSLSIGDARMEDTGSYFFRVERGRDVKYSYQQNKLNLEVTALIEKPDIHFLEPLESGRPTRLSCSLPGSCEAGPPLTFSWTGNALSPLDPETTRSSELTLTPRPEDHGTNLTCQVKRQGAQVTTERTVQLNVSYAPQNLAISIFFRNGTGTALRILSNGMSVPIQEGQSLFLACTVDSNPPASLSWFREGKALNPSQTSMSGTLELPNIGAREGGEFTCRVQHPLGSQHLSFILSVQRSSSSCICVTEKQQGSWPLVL
# B1: extracellular domain of PTGFRN (aa 26-832) with a C-terminal histidine tag (domain or fragment)
# chain: VPTATLVRVVGTELVIPCNVSDYDGPSEQNFDWSFSSLGSSFVELASTWEVGFPAQLYQERLQRGEILLRRTANDAVELHIKNVQPSDQGHYKCSTPSTDATVQGNYEDTVQVKVLADSLHVGPSARPPPSLSLREGEPFELRCTAASASPLHTHLALLWEVHRGPARRSVLALTHEGRFHPGLGYEQRYHSGDVRLDTVGSDAYRLSVSRALSADQGSYRCIVSEWIAEQGNWQEIQEKAVEVATVVIQPSVLRAAVPKNVSVAEGKELDLTCNITTDRADDVRPEVTWSFSRMPDSTLPGSRVLARLDRDSLVHSSPHVALSHVDARSYHLLVRDVSKENSGYYYCHVSLWAPGHNRSWHKVAEAVSSPAGVGVTWLEPDYQVYLNASKVPGFADDPTELACRVVDTKSGEANVRFTVSWYYRMNRRSDNVVTSELLAVMDGDWTLKYGERSKQRAQDGDFIFSKEHTDTFNFRIQRTTEEDRGNYYCVVSAWTKQRNNSWVKSKDVFSKPVNIFWALEDSVLVVKARQPKPFFAAGNTFEMTCKVSSKNIKSPRYSVLIMAEKPVGDLSSPNETKYIISLDQDSVVKLENWTDASRVDGVVLEKVQEDEFRYRMYQTQVSDAGLYRCMVTAWSPVRGSLWREAATSLSNPIEIDFQTSGPIFNASVHSDTPSVIRGDLIKLFCIITVEGAALDPDDMAFDVSWFAVHSFGLDKAPVLLSSLDRKGIVTTSRRDWKSDLSLERVSVLEFLLQVHGSEDQDFGNYYCSVTPWVKSPTGSWQKEAEIHSKPVFITVKMDVLNAFKYP
# How the values were obtained:
# Experiment in all cases: BLI
# Siglec-10 Fc-fusion = target: T1, Siglec-10 Fc-fusion
# Siglec-14 Fc-fusion = target: T2, Siglec-14 Fc-fusion
# Siglec-9 Fc-fusion = Siglec-9 Fc-fusion (UniProt Q9Y336 18-348)
# Chain of Siglec-9 Fc-fusion (Q9Y336 18-348): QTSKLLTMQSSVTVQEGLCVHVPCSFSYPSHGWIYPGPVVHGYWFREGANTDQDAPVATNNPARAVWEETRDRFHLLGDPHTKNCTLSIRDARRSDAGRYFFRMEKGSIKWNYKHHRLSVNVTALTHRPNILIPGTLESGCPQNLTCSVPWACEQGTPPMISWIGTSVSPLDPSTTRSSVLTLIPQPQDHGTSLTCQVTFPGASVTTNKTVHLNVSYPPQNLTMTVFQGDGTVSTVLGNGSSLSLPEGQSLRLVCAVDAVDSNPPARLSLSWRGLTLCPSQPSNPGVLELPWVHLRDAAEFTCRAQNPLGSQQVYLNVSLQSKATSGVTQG
binder,measurement,setting,value
B1,Kd,Siglec-10 Fc-fusion,760 nM
same,Kd,Siglec-14 Fc-fusion,1100 nM
same,Kd,Siglec-9 Fc-fusion,4200 nM
